Reference: publication PMC9765508, “Metabolic Promiscuity of an Orphan Small Alarmone Hydrolase Facilitates Bacterial Environmental Adaptation” (mBio, 2022)

Experiments:
[1] = tested on: Nc1nc2c(ncn2[C@@H]2O[C@H](COP(=O)(O)O)[C@@H](OP(=O)(O)OP(=O)(O)O)[C@H]2O)c(=O)[nH]1; assay: purified protein; format: biochemical, Xanthomonas campestris; conditions: 20 mM Tris-HCl pH 7.5, 1 mM MnCl2, 37 °C, 50 nM enzyme
[2] = tested on: Nc1nc2c(ncn2[C@@H]2O[C@H](COP(=O)(O)OP(=O)(O)O)[C@@H](OP(=O)(O)OP(=O)(O)O)[C@H]2O)c(=O)[nH]1; assay: purified protein; format: biochemical, Xanthomonas campestris; conditions: 20 mM Tris-HCl pH 7.5, 1 mM MnCl2, 37 °C, 50 nM enzyme
[3] = tested on: Nc1nc2c(ncn2[C@@H]2O[C@H](COP(=O)(O)OP(=O)(O)OP(=O)(O)O)[C@@H](OP(=O)(O)OP(=O)(O)O)[C@H]2O)c(=O)[nH]1; assay: purified protein; format: biochemical, Xanthomonas campestris; conditions: 20 mM Tris-HCl pH 7.5, 1 mM MnCl2, 37 °C, 50 nM enzyme
[4] = tested on: Nc1ncnc2c1ncn2[C@@H]1O[C@H](COP(=O)(O)OP(=O)(O)OP(=O)(O)O)[C@@H](OP(=O)(O)OP(=O)(O)O)[C@H]1O; assay: purified protein; format: biochemical, Xanthomonas campestris; conditions: 20 mM Tris-HCl pH 7.5, 1 mM MnCl2, 37 °C, 25 nM enzyme
B. subtilis Rel = molecular target: T1, B. subtilis Rel (Bacillus subtilis, UniProt O54408); assay: […]-labelled nucleotide hydrolysis, TLC; format: biochemical; conditions: 20 mM Tris-HCl pH 7.5, 1 mM MnCl2, 37 °C, 240 nM enzyme; labelled compound
T1 construct: gene relA; purified; construct and tag not described
T1 sequence (O54408 whole entry): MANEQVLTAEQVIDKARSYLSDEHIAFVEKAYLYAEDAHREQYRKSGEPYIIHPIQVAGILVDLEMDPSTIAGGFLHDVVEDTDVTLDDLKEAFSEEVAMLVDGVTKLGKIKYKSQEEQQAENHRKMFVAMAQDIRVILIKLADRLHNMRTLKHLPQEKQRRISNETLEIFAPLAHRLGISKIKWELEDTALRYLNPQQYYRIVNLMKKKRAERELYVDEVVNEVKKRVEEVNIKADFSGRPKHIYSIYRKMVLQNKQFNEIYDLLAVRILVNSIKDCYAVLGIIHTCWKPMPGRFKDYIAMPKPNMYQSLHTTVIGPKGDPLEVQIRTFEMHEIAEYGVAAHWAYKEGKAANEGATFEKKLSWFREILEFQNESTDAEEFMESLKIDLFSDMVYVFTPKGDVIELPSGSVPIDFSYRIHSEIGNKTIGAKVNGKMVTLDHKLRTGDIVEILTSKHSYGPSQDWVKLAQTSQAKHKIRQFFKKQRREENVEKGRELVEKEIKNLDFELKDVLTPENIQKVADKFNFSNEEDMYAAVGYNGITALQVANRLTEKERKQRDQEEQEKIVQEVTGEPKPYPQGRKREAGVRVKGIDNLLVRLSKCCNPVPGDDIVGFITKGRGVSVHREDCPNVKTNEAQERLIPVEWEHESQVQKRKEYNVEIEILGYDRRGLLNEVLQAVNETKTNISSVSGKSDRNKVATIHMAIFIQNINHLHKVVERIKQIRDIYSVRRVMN

[5] = substrate: NC(=O)C1=CN([C@@H]2O[C@H](COP(=O)(O)OP(=O)(O)OC[C@H]3O[C@@H](n4cnc5c(N)ncnc54)[C@H](OP(=O)(O)O)[C@@H]3O)[C@@H](O)[C@H]2O)C=CC1; assay: phosphate release, malachite green assay, Michaelis-Menten fit; format: biochemical, Xanthomonas campestris; conditions: 20 mM Tris-HCl pH 8, 1 mM MnCl2, 37 °C, 1 μM enzyme
Source text: phosphate release, malachite green assay, Michaelis-Menten fit on XccSAH

With “XccSAH (Xanthomonas campestris pv. campestris str. ATCC 33913)” the Km [1] was 19.73 ± 4.75 µM, the Vmax [1] was 4.89 µM/min and the kcat [1] was 1.63 ± 0.07 s⁻¹. It also gave a kcat/Km [1] of 86000 ± 18000 M⁻¹ s⁻¹, a Km [2] of 14.13 ± 2.02 µM and a Vmax [2] of 21 µM/min. The kcat [2] was 6.99 ± 0.15 s⁻¹, the kcat/Km [2] was 500000 ± 82000 M⁻¹ s⁻¹ and the Km [3] was 29.14 ± 4.41 µM. The Vmax [3] was 42.9 µM/min, the kcat [3] was 14.3 ± 1.45 s⁻¹ and the kcat/Km [3] was 493000 ± 25000 M⁻¹ s⁻¹. The Km [4] was 45.82 ± 3.87 µM, the Vmax [4] was 73.1 µM/min and the kcat [4] was 48.8 ± 2.99 s⁻¹. For the same molecule, the kcat/Km [4] was 1.07e+06 ± 75000 M⁻¹ s⁻¹.

`Nc1nc2c(ncn2[C@@H]2O[C@H](COP(=O)(O)O)[C@@H](OP(=O)(O)OP(=O)(O)O)[C@H]2O)c(=O)[nH]1` [pGpp] was tested, and the “32P-labelled nucleotide hydrolysis, TLC” value (B. subtilis Rel) was “We found that B. subtilis Rel could also hydrolyze pGpp to GMP”.

B1: XccSAH (Xanthomonas campestris pv. campestris str. ATCC 33913) (protein)
chain: MTALTERYAQAVDYARIAHAGQLRKGTQIPYLSHLLGVSTLVLECGGDEDQAIAGLLHDVVEDCGGGHEGSIRAQFGDAVADIVMACTDATAEDKADVDNTASARKRDWRERKQSYLAHLRKTPERALLVSGCDKLYNARTIVQDLENPDVGQEIFNVFTAGRDGTLWYYAALEEIFRTRKAATARLFSGVVARMQALADSSIDTVPAHAVA
B1 gave a Km [5] of 132.2 ± 39.09 µM, a Vmax [5] of 2.88 µM/min and a kcat [5] of 0.048 ± 0.004 s⁻¹. It also gave a kcat/Km [5] of 363 ± 20 M⁻¹ s⁻¹.
